Reference: patent US20200268901A1
Positions count from the first letter of the chain named.

Legend:
[1] = target: hCD73-his (full length extracellular domain of human CD73, residues 26-546, C-terminal polyhistidine tag) (human) (UniProt P21589); experiment: SEC-MALS, hCD73-his:Fab 1:2 (4:8 uM); peak at ~20.1 min, 7.7 % of UV
[2] = target: N-hCD73-his (N-terminal domain of human CD73, residues 26-336) (human) (UniProt P21589); experiment: DLS, N-hCD73-his:Fab 1:1 (8:8 uM); Rh SD 0.1, %Pd 12.6 (SD 4.7), %Mass 100.0 (SD 0.0)
Sequence of N-hCD73-his (N-terminal domain of human CD73, residues 26-336) (human) (P21589 26-336 limits assumed): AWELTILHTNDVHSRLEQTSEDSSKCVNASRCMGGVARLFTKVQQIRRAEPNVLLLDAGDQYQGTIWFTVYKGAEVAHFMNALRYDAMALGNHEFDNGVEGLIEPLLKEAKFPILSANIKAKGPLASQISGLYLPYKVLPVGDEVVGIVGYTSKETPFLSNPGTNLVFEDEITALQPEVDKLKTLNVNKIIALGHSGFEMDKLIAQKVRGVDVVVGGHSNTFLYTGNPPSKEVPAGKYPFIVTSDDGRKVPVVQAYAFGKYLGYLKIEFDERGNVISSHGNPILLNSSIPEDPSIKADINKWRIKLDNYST

[3] = target: hCD73-his (full length extracellular domain of human CD73, residues 26-546, C-terminal polyhistidine tag) (human) (UniProt P21589); experiment: SEC-MALS, hCD73-his:Fab 1:2 (4:8 uM); peak at ~14.7 min, 90.7 % of UV
[4] = target: hCD73-his (full length extracellular domain of human CD73, residues 26-546, C-terminal polyhistidine tag) (human) (UniProt P21589); experiment: SEC-MALS, hCD73-his:Fab 1:2 (4:8 uM); peak at ~16.8 min, 0.8 % of UV
[5] = target: hCD73-his (full length extracellular domain of human CD73, residues 26-546, C-terminal polyhistidine tag) (human) (UniProt P21589); experiment: SEC-MALS, hCD73-his:Fab 1:2 (4:8 uM); peak at ~12.6 min, 0.9 % of UV
[6] = target: N-hCD73-his (N-terminal domain of human CD73, residues 26-336) (human) (UniProt P21589); experiment: SEC-MALS, N-hCD73-his:Fab 1:1 (8:8 uM); peak at ~17.4 min, 95.3 % of UV
[7] = target: hCD73-his (full length extracellular domain of human CD73, residues 26-546, C-terminal polyhistidine tag) (human) (UniProt P21589); experiment: DLS, hCD73-his:Fab 1:2 (4:8 uM); Rh SD 0.1, %Pd 15.1 (SD 4.3), %Mass 100.0 (SD 0.0)
[8] = target: N-hCD73-his (N-terminal domain of human CD73, residues 26-336) (human) (UniProt P21589); experiment: SEC-MALS, N-hCD73-his:Fab 1:1 (8:8 uM); peak at ~20.0 min, 4.7 % of UV
[9] = target: hCD73-his (full length extracellular domain of human CD73, residues 26-546, C-terminal polyhistidine tag) (human) (UniProt P21589); experiment: SEC-MALS, hCD73:mAb 1:0.25 (2.5:0.625 uM); peak at ~11.8 min, 42.0 % of UV
[10] = target: hCD73-his (full length extracellular domain of human CD73, residues 26-546, C-terminal polyhistidine tag) (human) (UniProt P21589); experiment: SEC-MALS, hCD73:mAb 1:2 (2.5:5 uM); peak at ~15.3 min, 0.6 % of UV
[11] = target: hCD73-his (full length extracellular domain of human CD73, residues 26-546, C-terminal polyhistidine tag) (human) (UniProt P21589); experiment: SEC-MALS, hCD73:mAb 1:2 (2.5:5 uM); peak at ~11.7 min, 52.5 % of UV
[12] = target: N-hCD73-his (N-terminal domain of human CD73, residues 26-336) (human) (UniProt P21589); experiment: SEC-MALS, N-hCD73:mAb 1:1 as printed (5:[…]); peak at ~15.9 min, […] of UV
[13] = target: hCD73-his (full length extracellular domain of human CD73, residues 26-546, C-terminal polyhistidine tag) (human) (UniProt P21589); experiment: SEC-MALS, hCD73:mAb 1:0.5 (2.5:1.25 uM); peak at ~13.4 min, 15.8 % of UV
[14] = target: hCD73-his (full length extracellular domain of human CD73, residues 26-546, C-terminal polyhistidine tag) (human) (UniProt P21589); experiment: SEC-MALS, hCD73:mAb 1:4 (2.5:10 uM); peak at ~15.3 min, 1.2 % of UV
[15] = target: N-hCD73-his (N-terminal domain of human CD73, residues 26-336) (human) (UniProt P21589); experiment: SEC-MALS, N-hCD73:mAb 1:1 as printed (5:[…]); peak at ~13.9 min, 0.7 % of UV
[16] = target: hCD73-his (full length extracellular domain of human CD73, residues 26-546, C-terminal polyhistidine tag) (human) (UniProt P21589); experiment: SEC-MALS, hCD73:mAb 1:0.5 (2.5:1.25 uM); peak at ~11.7 min, 71.9 % of UV
[17] = target: hCD73-his (full length extracellular domain of human CD73, residues 26-546, C-terminal polyhistidine tag) (human) (UniProt P21589); experiment: SEC-MALS, hCD73:mAb 1:1 (2.5:[…]); peak at ~13.4 min, 1.9 % of UV
[18] = target: hCD73-his (full length extracellular domain of human CD73, residues 26-546, C-terminal polyhistidine tag) (human) (UniProt P21589); experiment: SEC-MALS, hCD73:mAb 1:1 (2.5:[…]); peak at ~17.1 min, […] of UV
[19] = target: hCD73-his (full length extracellular domain of human CD73, residues 26-546, C-terminal polyhistidine tag) (human) (UniProt P21589); experiment: DLS, hCD73:mAb 1:1 (2.5:[…]); Rh SD 1.0, %Pd 25.1 (SD 2.1), %Mass 22.3 (SD 4.9)
[20] = target: hCD73-his (full length extracellular domain of human CD73, residues 26-546, C-terminal polyhistidine tag) (human) (UniProt P21589); experiment: SEC-MALS, hCD73:mAb 1:4 (2.5:10 uM); peak at ~13.4 min, 16.2 % of UV
[21] = target: hCD73-his (full length extracellular domain of human CD73, residues 26-546, C-terminal polyhistidine tag) (human) (UniProt P21589); experiment: SEC-MALS, hCD73:mAb 1:2 (2.5:5 uM); peak at ~13.4 min, 17.7 % of UV
[22] = target: hCD73-his (full length extracellular domain of human CD73, residues 26-546, C-terminal polyhistidine tag) (human) (UniProt P21589); experiment: SEC-MALS, hCD73:mAb 1:4 (2.5:10 uM); peak at ~11.7 min, […] of UV
[23] = target: N-hCD73-his (N-terminal domain of human CD73, residues 26-336) (human) (UniProt P21589); experiment: DLS, N-hCD73:mAb 1:1 as printed (5:[…]); Rh SD 0.3, %Pd 13.9 (SD 7.0), %Mass 100.0 (SD 0.0)
[24] = target: hCD73-his (full length extracellular domain of human CD73, residues 26-546, C-terminal polyhistidine tag) (human) (UniProt P21589); experiment: SEC-MALS, hCD73:mAb 1:0.25 (2.5:0.625 uM); peak at ~17.1 min, 36.4 % of UV
[25] = target: hCD73-his (full length extracellular domain of human CD73, residues 26-546, C-terminal polyhistidine tag) (human) (UniProt P21589); experiment: DLS, hCD73:mAb 1:0.5 (2.5:1.25 uM); Rh SD 1.0, %Pd 31.7 (SD 8.8), %Mass 62.6 (SD 25.8)
[26] = target: hCD73-his (full length extracellular domain of human CD73, residues 26-546, C-terminal polyhistidine tag) (human) (UniProt P21589); experiment: SEC-MALS, hCD73:mAb 1:0.25 (2.5:0.625 uM); peak at ~13.4 min, 21.6 % of UV
[27] = target: N-hCD73-his (N-terminal domain of human CD73, residues 26-336) (human) (UniProt P21589); experiment: SEC-MALS, N-hCD73:mAb 1:1 as printed (5:[…]); peak at ~17.0 min, […] of UV
[28] = target: hCD73-his (full length extracellular domain of human CD73, residues 26-546, C-terminal polyhistidine tag) (human) (UniProt P21589); experiment: DLS, hCD73:mAb 1:2 (2.5:5 uM); Rh SD 0.1, %Pd 31.3 (SD 5.5), %Mass 68.7 (SD 25.8)
[29] = target: hCD73-his (full length extracellular domain of human CD73, residues 26-546, C-terminal polyhistidine tag) (human) (UniProt P21589); experiment: SEC-MALS, hCD73:mAb 1:4 (2.5:10 uM); peak at ~17.1 min, 58.6 % of UV
[30] = target: hCD73-his (full length extracellular domain of human CD73, residues 26-546, C-terminal polyhistidine tag) (human) (UniProt P21589); experiment: SEC-MALS, hCD73:mAb 1:1 (2.5:[…]); peak at ~11.5 min, 95.3 % of UV
[31] = target: hCD73-his (full length extracellular domain of human CD73, residues 26-546, C-terminal polyhistidine tag) (human) (UniProt P21589); experiment: SEC-MALS, hCD73:mAb 1:0.5 (2.5:1.25 uM); peak at ~17.1 min, 13.4 % of UV
[32] = target: hCD73-his (full length extracellular domain of human CD73, residues 26-546, C-terminal polyhistidine tag) (human) (UniProt P21589); experiment: DLS, hCD73:mAb 1:4 (2.5:10 uM); Rh SD 0.9, %Pd 42.9 (SD 3.5), %Mass 90.2 (SD 17.5)
[33] = target: N-hCD73-his (N-terminal domain of human CD73, residues 26-336) (human) (UniProt P21589); experiment: SEC-MALS, N-hCD73:mAb 1:1 as printed (5:[…]); peak at ~14.7 min, 88.3 % of UV
[34] = target: hCD73-his (full length extracellular domain of human CD73, residues 26-546, C-terminal polyhistidine tag) (human) (UniProt P21589); experiment: SEC-MALS, hCD73:mAb 1:2 (2.5:5 uM); peak at ~17.1 min, 29.3 % of UV
[35] = target: hCD73-his (full length extracellular domain of human CD73, residues 26-546, C-terminal polyhistidine tag) (human) (UniProt P21589); experiment: DLS, hCD73:mAb 1:0.25 (2.5:0.625 uM); Rh SD 1.7, %Pd 46.5 (SD 5.9), %Mass 99.9 (SD 0.1)

Sequence of hCD73-his (full length extracellular domain of human CD73, residues 26-546, C-terminal polyhistidine tag) (human) (P21589 26-546 limits assumed): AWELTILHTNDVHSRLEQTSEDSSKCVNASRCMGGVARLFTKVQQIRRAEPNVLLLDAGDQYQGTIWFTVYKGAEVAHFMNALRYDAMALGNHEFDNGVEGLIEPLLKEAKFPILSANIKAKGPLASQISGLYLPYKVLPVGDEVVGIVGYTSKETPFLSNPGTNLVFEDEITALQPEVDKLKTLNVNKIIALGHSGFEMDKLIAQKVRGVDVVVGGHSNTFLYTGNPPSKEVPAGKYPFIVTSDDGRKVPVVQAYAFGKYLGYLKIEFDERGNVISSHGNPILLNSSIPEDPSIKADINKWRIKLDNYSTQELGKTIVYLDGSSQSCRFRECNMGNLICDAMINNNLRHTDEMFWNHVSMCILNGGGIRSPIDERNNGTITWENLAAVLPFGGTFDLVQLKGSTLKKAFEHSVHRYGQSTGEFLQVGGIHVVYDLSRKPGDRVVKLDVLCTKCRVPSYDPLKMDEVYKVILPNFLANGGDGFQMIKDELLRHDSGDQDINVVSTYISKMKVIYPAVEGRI

B1: 11F11-Fab (Fab, V domains shown, part only)
VH: QVQLVESGGGVVQPGRSLRLSCATSGFTFSNYGMHWVRQAPGKGLEWVAVILYDGSNKYYPDSVKGRFTISRDNSKNTLYLQMNSLRAEDTAVYYCARGGSSWYPDSFDIWGQGTMVTVSS
VL: DIQMTQSPSSLSASVGDRVTITCRASQGISSWLAWYQQKPEKAPKSLIYAASSLQSGVPSRFSGSGSGTDFTLTISSLQPEDFATYYCQQYNSYPLTFGGGTKVEIKR
modifications: CH1 of Fab heavy chain not stated
B1 showed an MW (kDa) Peak 4 [1] of 40 kDa, a Rh (DLS) [2] of 4.2 nm and an MW (kDa) Peak 2 [3] of 310 kDa. It also gave an MW (kDa) Peak 3 [4] of 85 kDa, an MW (kDa) Peak 1 [5] of 300 kDa and an MW (kDa) Peak 1 [6] of 84 kDa. It also gave a Rh (DLS) [7] of 6.4 nm and an MW (kDa) Peak 2 [8] of 44 kDa.

B2: CD73.4-hybrid (antibody, from a related filing, V domains shown, part only)
VH: B1 VH with T24A
VL: B1 VL
Binder B2 has an MW (kDa) Peak 1 [9] of 1200 kDa, an MW (kDa) Peak 3 [10] of 220 kDa and an MW (kDa) Peak 1 [11] of 1700 kDa. For the same binder, the MW (kDa) Peak 3 [12] was 180 kDa, the MW (kDa) Peak 2 [13] was 540 kDa and the MW (kDa) Peak 3 [14] was 200 kDa. The MW (kDa) Peak 1 [15] was 390 kDa, the MW (kDa) Peak 1 [16] was 1900 kDa and the MW (kDa) Peak 2 [17] was 1000 kDa. The MW (kDa) Peak 3 [18] was 530 kDa, the Rh (DLS) [19] was 29.9 nm and the MW (kDa) Peak 2 [20] was 500 kDa. For the same binder, the MW (kDa) Peak 2 [21] was 500 kDa, the MW (kDa) Peak 1 [22] was 1300 kDa and the Rh (DLS) [23] was 6.7 nm. The MW (kDa) Peak 3 [24] was 120 kDa, the Rh (DLS) [25] was 17.5 nm and the MW (kDa) Peak 2 [26] was 520 kDa. The MW (kDa) Peak 4 [27] was 150 kDa, the Rh (DLS) [28] was 14.4 nm and the MW (kDa) Peak 4 [29] was 140 kDa. For the same binder, the MW (kDa) Peak 1 [30] was 3300 kDa, the MW (kDa) Peak 3 [31] was 130 kDa and the Rh (DLS) [32] was 11.4 nm. The MW (kDa) Peak 2 [33] was 210 kDa, the MW (kDa) Peak 4 [34] was 140 kDa and the Rh (DLS) [35] was 13.2 nm.
